According to paper PMC8660895, “Hedgehog-Interacting Protein is a multimodal antagonist of Hedgehog signalling” (Nature Communications, 2021):
Several values for one entry are separate records, joined by “and”; a condition that tells them apart may be missing. Identical values can stand only once. One block for each molecule: values may come before it.

Legend:
HHIP-N = target: T1, HHIP-N (Homo sapiens, UniProt Q96QV1); assay: isothermal titration calorimetry; format: binding; conditions: pH 7.5, 25 °C, 150 mM NaCl, 3% isopropanol; PEG length and linkage of the conjugate not told
T1 construct: EndoF1-deglycosylated for crystals
T1 sequence (Q96QV1 39-209): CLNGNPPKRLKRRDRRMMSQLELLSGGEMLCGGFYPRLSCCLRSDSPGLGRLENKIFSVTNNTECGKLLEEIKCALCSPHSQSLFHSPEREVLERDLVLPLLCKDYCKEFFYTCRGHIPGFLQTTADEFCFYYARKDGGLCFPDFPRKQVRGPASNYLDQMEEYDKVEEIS

HHIP-C = target: T2, HHIP-C (Homo sapiens, UniProt Q96QV1); assay: X-ray crystallography (molecular replacement); format: binding; conditions: co-crystallised with 10 mM SOS, pH 8.5; two SOS molecules per chain, same site as heparin
T2 construct: C-terminal domain (beta-propeller + 2 EGF repeats), residues 213-670, C-terminal His6 tag, HEK293T with kifunensine; EndoF1-deglycosylated for crystals; mostly monomer without GAG, anti-parallel dimer in crystal
T2 sequence (Q96QV1 213-670): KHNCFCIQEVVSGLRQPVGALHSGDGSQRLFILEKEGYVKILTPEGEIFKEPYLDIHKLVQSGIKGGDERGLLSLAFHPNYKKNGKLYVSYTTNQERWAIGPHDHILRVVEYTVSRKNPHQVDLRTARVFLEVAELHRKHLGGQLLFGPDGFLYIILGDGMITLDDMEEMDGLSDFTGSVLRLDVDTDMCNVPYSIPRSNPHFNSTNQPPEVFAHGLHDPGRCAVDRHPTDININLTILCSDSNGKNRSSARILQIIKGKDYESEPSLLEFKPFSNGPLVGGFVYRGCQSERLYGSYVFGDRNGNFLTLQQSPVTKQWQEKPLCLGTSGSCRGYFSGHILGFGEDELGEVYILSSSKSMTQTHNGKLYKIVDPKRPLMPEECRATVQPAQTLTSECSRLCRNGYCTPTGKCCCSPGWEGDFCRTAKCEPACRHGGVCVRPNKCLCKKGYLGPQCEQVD

[1] = target: HHIP N-terminal domain (HHIP-N) (human) (UniProt Q96QV1); assay: SEC-MALS; HHIP-N on S200 10/30 column; 10 mM HEPES pH 7.5, 150 mM NaCl; 48–192 μM injected
[2] = target: chondroitin sulphate (CS); assay: SPR; conditions: GAGs immobilised on the chip; [HHIP-C] 0-40 µM; parent: 0.7 µM
heparan sulphate (HS) = assay: SPR; conditions: GAGs immobilised on the chip; [HHIP-C] 0-40 µM; parent: 0.5 µM
heparin = assay: SPR; conditions: GAGs immobilised on the chip; [HHIP-C] 0-40 µM; parent: 0.2 µM
[3] = target: the molecule itself; assay: AUC; sedimentation velocity; HHIP-C alone at 1 mg/mL; 10 mM HEPES pH 7.5, 120 mM NaCl; 20 °C; c(s) distributions

Kd (HHIP-N): 23 µM
Molecule: PEG-cholesterol

Molecule: O=S(=O)(O)OC[C@H]1O[C@@](COS(=O)(=O)O)(O[C@H]2O[C@H](COS(=O)(=O)O)[C@@H](OS(=O)(=O)O)[C@H](OS(=O)(=O)O)[C@H]2OS(=O)(=O)O)[C@@H](OS(=O)(=O)O)[C@@H]1OS(=O)(=O)O [sucrose octasulphate]
X-ray crystallography (molecular replacement) (HHIP-C): We also determined the crystal structure of a HHIP-C:SOS complex

stoichiometry N [1]: 2
Molecule: HHIP N-terminal domain (HHIP-N) (from UniProt Q96QV1 39-209) (domain or fragment)

Kd [2]: 30 µM
Kd (heparan sulphate (HS)): 40 µM
Kd (heparin): 110 µM
Molecule: HHIP C-terminal domain (HHIP-C) (from UniProt Q96QV1) K277E; R328E; R350E; K569E; R610E; R613E

B1: HHIP C-terminal domain (HHIP-C) (domain or fragment, human, UniProt Q96QV1 213-670, looked up)
chain: KHNCFCIQEVVSGLRQPVGALHSGDGSQRLFILEKEGYVKILTPEGEIFKEPYLDIHKLVQSGIKGGDERGLLSLAFHPNYKKNGKLYVSYTTNQERWAIGPHDHILRVVEYTVSRKNPHQVDLRTARVFLEVAELHRKHLGGQLLFGPDGFLYIILGDGMITLDDMEEMDGLSDFTGSVLRLDVDTDMCNVPYSIPRSNPHFNSTNQPPEVFAHGLHDPGRCAVDRHPTDININLTILCSDSNGKNRSSARILQIIKGKDYESEPSLLEFKPFSNGPLVGGFVYRGCQSERLYGSYVFGDRNGNFLTLQQSPVTKQWQEKPLCLGTSGSCRGYFSGHILGFGEDELGEVYILSSSKSMTQTHNGKLYKIVDPKRPLMPEECRATVQPAQTLTSECSRLCRNGYCTPTGKCCCSPGWEGDFCRTAKCEPACRHGGVCVRPNKCLCKKGYLGPQCEQVD
notes: Cloned in pHLsec; For crystallisation the protein was deglycosylated with endoglycosidase F1; also called HHIP-C WT; apo HHIP-C; source: HEK293T, transient transfection with kifunensine, purified from conditioned medium (HisTrap, SEC)
stoichiometry N [3]: 2 and 3
